Laboratory results taken from patent publication US20150203840A1 (ARGEN X N V, published 2015).

Legend:
[1] = target: T1, human IL22R on BW-hIL22R cells (human, UniProt Q8N6P7 16-574); assay: cell-based or functional assay
T1 sequence (looked up): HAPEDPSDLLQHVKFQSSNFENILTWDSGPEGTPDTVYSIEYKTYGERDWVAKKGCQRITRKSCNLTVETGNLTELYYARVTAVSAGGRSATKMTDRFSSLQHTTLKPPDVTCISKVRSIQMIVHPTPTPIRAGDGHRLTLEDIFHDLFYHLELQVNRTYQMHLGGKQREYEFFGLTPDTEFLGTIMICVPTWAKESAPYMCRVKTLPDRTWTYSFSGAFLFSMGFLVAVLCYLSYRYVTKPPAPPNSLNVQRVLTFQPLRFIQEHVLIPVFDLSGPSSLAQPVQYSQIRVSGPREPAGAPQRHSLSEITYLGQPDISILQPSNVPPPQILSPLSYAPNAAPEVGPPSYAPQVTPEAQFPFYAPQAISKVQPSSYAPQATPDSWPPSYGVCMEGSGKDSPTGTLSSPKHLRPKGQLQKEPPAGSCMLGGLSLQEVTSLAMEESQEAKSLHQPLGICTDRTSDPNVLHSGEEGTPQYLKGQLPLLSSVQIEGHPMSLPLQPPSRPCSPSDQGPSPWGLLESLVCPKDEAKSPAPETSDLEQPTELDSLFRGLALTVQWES

[2] = target: T2, recombinant human IL22R1 (human IL22R ECD) (human, UniProt Q8N6P7 16-228, biotinylated in the ELISA of Table 4); assay: Biacore, hIL22R
T2 construct: extracellular domain; also called hIL22R; human Interleukin 22 receptor
T2 sequence (looked up): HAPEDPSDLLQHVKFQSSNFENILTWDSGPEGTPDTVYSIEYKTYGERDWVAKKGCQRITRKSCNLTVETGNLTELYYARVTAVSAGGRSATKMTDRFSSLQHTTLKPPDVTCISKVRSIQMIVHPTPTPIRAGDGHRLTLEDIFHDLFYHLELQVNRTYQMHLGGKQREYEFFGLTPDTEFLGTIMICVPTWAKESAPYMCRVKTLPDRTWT

[3] = target: T1, human IL22R on BW-hIL22R cells; assay: cell-based or functional assay; remark: listed apart in the source
[4] = target: T3, recombinant mouse IL22R1 (mouse IL22R ECD) (mouse, UniProt Q80XZ4 16-230, biotinylated in the ELISA of Table 4); assay: screening of clones selected on mouse IL22R; method not detailed
T3 construct: extracellular domain; also called mIL22R; mIL22R1
T3 sequence (looked up): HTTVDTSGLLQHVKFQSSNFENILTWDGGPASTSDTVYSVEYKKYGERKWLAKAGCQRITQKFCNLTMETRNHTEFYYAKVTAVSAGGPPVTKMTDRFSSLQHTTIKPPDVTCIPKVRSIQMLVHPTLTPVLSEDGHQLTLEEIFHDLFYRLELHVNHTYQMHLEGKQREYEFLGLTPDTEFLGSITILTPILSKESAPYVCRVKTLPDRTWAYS

[5] = target: T4, mouse IL22R on BaF3-mIL22R cells (mouse, UniProt Q80XZ4 16-581); assay: cell-based or functional assay
T4 sequence (looked up): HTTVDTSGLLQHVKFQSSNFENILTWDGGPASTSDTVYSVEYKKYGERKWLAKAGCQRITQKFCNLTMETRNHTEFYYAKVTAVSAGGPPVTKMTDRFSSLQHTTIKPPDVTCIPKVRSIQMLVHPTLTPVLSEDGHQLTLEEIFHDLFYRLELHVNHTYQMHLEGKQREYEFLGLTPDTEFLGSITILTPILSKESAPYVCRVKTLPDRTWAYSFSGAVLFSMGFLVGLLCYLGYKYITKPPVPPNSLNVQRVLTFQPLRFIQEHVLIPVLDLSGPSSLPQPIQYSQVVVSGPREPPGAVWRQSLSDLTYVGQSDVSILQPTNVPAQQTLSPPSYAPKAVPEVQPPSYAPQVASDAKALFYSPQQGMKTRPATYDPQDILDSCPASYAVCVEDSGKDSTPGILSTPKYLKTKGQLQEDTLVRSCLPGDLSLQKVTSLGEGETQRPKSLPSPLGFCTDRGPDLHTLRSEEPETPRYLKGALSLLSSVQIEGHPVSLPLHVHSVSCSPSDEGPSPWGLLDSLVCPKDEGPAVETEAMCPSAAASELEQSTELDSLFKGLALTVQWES

[6] = target: T3, recombinant mouse IL22R1 (mouse IL22R …); assay: Biacore, mIL22R

Binder	Potency (pM) BW-hIL22R [1]	Kd [2]	IC50 pM (potency on human IL22R expressing cells) [3]	binding result [4]	Potency (pM) BaF3-mIL22R [5]	Kd [6]
170B2 (antibody, V domains shown, Llama-derived parental clone; also called VH_170B2; VK_170B2) VH: EVQLVESGGGLVQPGGSLRLSCAASGFTFSSSWMYWVRQAPGKGLEFVSVINTRSGITHYVESVKGRFTISTDNAKNTLFLQMNSLKSEDTAVYYCATRIQGLIDYWGQGTQVTVSS VL: DIVMTQSPSSLSVSLGDRVTITCQASQSIGSVNALAWYQQKPGQSLKLLIHGASRLQTGVPSRFSGSGSGTSFTLAISGVEAEDLATYYCLQDYAWPLTFGQGTKVELK	106 pM	0.12 nM	~106 pM	–	–	–
198G11 (antibody, V domains shown, Vkappa-shuffled clone of 170B2 (keeps the 170B2 VH-CH1); also called VK_198G11) VH: EVQLVESGGGLVQPGGSLRLSCAASGFTFSSSWMYWVRQAPGKGLEFVSVINTRSGITHYVESVKGRFTISTDNAKNTLFLQMNSLKSEDTAVYYCATRIQGLIDYWGQGTQVTVSS VL: DIVMTQSPSSLSASLGDRVTVTCQASQSIRSSLNWYQQKPGQAPKLLIYGASRLRIGVPSRFSGSASGTSFTLTISGVESEDLATYYCLQDYTWPLSFGSGTRLEIK	–	–	132 pM	binds	–	–
197G10 (antibody, V domains shown, Vkappa-shuffled clone of 170B2 (keeps the 170B2 VH-CH1); also called VK_197G10) VH: EVQLVESGGGLVQPGGSLRLSCAASGFTFSSSWMYWVRQAPGKGLEFVSVINTRSGITHYVESVKGRFTISTDNAKNTLFLQMNSLKSEDTAVYYCATRIQGLIDYWGQGTQVTVSS VL: DIQMTQSPSSMSASLGDSVTISCQASENIGTQLFWYQQNAGQPPKLLIYGASRLQTGVPSRFSGSGSGTTFTLTISGVETGDLATYYCLQDYSWPLTFGQGTKVELK	124 pM	0.29 nM	124 pM	–	790 pM	0.45 nM
196C2 (antibody, V domains shown, Vkappa-shuffled clone of 170B2 (keeps the 170B2 VH-CH1); also called VK_196C2) VH: EVQLVESGGGLVQPGGSLRLSCAASGFTFSSSWMYWVRQAPGKGLEFVSVINTRSGITHYVESVKGRFTISTDNAKNTLFLQMNSLKSEDTAVYYCATRIQGLIDYWGQGTQVTVSS VL: DIQMTQSPSSLSASLGDRVTITCQASQSISSLLAWYQQKPGQAPKLLIYGASRLQTGVPSRFSGSGSGTSFTLTISGVEAEDLATYYCLQDYSWPLTFGQGTKVELK	67 pM	0.08 nM	67 pM	–	870 pM	0.45 nM
197B7 (antibody, V domains shown, Vkappa-shuffled clone of 170B2 (keeps the 170B2 VH-CH1); also called VK_197B7) VH: EVQLVESGGGLVQPGGSLRLSCAASGFTFSSSWMYWVRQAPGKGLEFVSVINTRSGITHYVESVKGRFTISTDNAKNTLFLQMNSLKSEDTAVYYCATRIQGLIDYWGQGTQVTVSS VL: DIVMTQSPSSLSASLGDRVTITCQASQSIRSFIDWYQQKPGQAPKLLIYGTSRLETGVPSRFSGTGSGTSFTLTISGVEAEDLATYYCLQDYSWPLTFGQGTKVELK	69 pM	0.038 nM	69 pM	–	160 pM	0.39 nM
198C9 (antibody, V domains shown, Vkappa-shuffled clone of 170B2 (keeps the 170B2 VH-CH1); also called VK_198C9) VH: EVQLVESGGGLVQPGGSLRLSCAASGFTFSSSWMYWVRQAPGKGLEFVSVINTRSGITHYVESVKGRFTISTDNAKNTLFLQMNSLKSEDTAVYYCATRIQGLIDYWGQGTQVTVSS VL: DIVMTQSPSSLSASLGDRVTITCQATQSISTFLSWYQQKPGQTPKLLVYGASRLQTGVPSRFSGTGSGTKFTLTISGVEAEDLASYFCLQDYSWPLTFGQGTKVELK	–	–	89 pM	binds	–	–
196F8 (antibody, V domains shown, Vkappa-shuffled clone of 170B2 (keeps the 170B2 VH-CH1); also called VK_196F8) VH: EVQLVESGGGLVQPGGSLRLSCAASGFTFSSSWMYWVRQAPGKGLEFVSVINTRSGITHYVESVKGRFTISTDNAKNTLFLQMNSLKSEDTAVYYCATRIQGLIDYWGQGTQVTVSS VL: DIQMTQSPSSLSASLGDRVTITCQASQSISSMLAWYQQKPGQAPNLLIYGASRLQTGVPSRFSGSRSGTSFTLTISGVEAEDLATYYCLQDYSWPLTFGQGTKVELK	87 pM	0.01 nM	87 pM	–	105 pM	0.31 nM
197D3 (antibody, V domains shown, Vkappa-shuffled clone of 170B2 (keeps the 170B2 VH-CH1); also called VK_197D3) VH: EVQLVESGGGLVQPGGSLRLSCAASGFTFSSSWMYWVRQAPGKGLEFVSVINTRSGITHYVESVKGRFTISTDNAKNTLFLQMNSLKSEDTAVYYCATRIQGLIDYWGQGTQVTVSS VL: DIQMTQSPSSLSASLGDRVTVTCQASQSIRSSLNWYQQKPGQAPKLLIYGASRLRIGVPSRFSGSASGTSFTLTISGVEAEDLATYYCLQEYAWPLTFGQGTKVELK	57 pM	0.089 nM	57 pM	–	–	0.37 nM
198B7 (antibody, V domains shown, Vkappa-shuffled clone of 170B2 (keeps the 170B2 VH-CH1); also called VK_198B7) VH: EVQLVESGGGLVQPGGSLRLSCAASGFTFSSSWMYWVRQAPGKGLEFVSVINTRSGITHYVESVKGRFTISTDNAKNTLFLQMNSLKSEDTAVYYCATRIQGLIDYWGQGTQVTVSS VL: DIQMTQSPSSLSASLGDRVTITCQASQSISSQLAWYQQKPGQAPKLLIYGASRLQTGVPSRFSGSGSGTSFTLTISGVEAEDLATYYCLQDYSWPLTFGQGTKVELK	–	–	–	binds	–	–
